Target: Δgpαf-BOF (recombinant nonglycosylated pro-α factor derivative labeled with BODIPY FL) (yeast)
Assay: fluorescence polarisation; BOF anisotropy; Δgpαf-BOF (0.2 μM in buffer A: 50 mM HEPES pH 7.5, 40 mM KOAc, 5 mM MgCl2) titrated at 4°C with PDI or BiP; a separate sample for each concentration

| Kd | Substance |
| --- | --- |
| 0.9 µM | oxidized protein disulfide isomerase (from UniProt P07237 18-508) (enzyme) |
| 0.03 µM | reduced protein disulfide isomerase (from UniProt P07237 18-508) (enzyme) |

Source: PMC1890003
